US20240301062A1
Positions count from the first letter of the chain named. Values belong to the binder of their own block, whether it stands above or below them.

Assays:
CD3ε/δ (SPR analyte) [1] = target: CD3ε/δ (SPR analyte) (UniProt P07766); assay: SPR
CD3ε/δ (SPR analyte) [2] = target: CD3ε/δ (SPR analyte) (UniProt P07766); assay: SPR, antibody captured by anti-human Fc
CD3ε/δ (SPR analyte) [3] = target: CD3ε/δ (SPR analyte) (UniProt P07766); assay: SPR, antibody captured by anti-human Fc; remark: listed apart in the source

Chain of CD3ε/δ (SPR analyte) (P07766 23-126, stated change not applied, chain 1 of 2): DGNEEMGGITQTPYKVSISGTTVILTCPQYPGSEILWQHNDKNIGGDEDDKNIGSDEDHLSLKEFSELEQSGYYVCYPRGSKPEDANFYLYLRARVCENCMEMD
Chain of CD3ε/δ (SPR analyte) (P04234 22-105, stated change not applied, chain 2 of 2, further chain): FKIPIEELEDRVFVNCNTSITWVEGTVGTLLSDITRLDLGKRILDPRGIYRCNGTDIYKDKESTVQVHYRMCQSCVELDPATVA

- Kd (CD3ε/δ (SPR analyte) [1]): 25.9 nM
- koff (CD3ε/δ (SPR analyte) [1]): 0.00188 s⁻¹
- kon (CD3ε/δ (SPR analyte) [1]): 72500 M⁻¹ s⁻¹
B1: humanized sp34 scFv BG561P (scFv-Fc) (Fc fusion, not shown: a dimerising Fc or GST)
scFv: EVQLVESGGGLVQPGGSLRLSCAASGFTFNTYAMNWVRQAPGKGLEWVARIRSKYNNYATYYADSVKDRFTISRDDAKNSLYLQMNSLRAEDTAVYYCVRHGNFGNSYVSWFAYWGQGTLVTVSSGGGGSGGGGSGGGGSEIVLTQSPATLSVSPGERATLSCRSSTGAVTTSNYANWVQQKPGQAPRGLIGGTNKRAPGIPARFSGSLSGDEATLTISSLQSEDFAVYYCALWYSNLWVFGGGTKVEIK

- Kd (CD3ε/δ (SPR analyte) [3]): 18.2 nM
- koff (CD3ε/δ (SPR analyte) [3]): 0.00112 s⁻¹
- kon (CD3ε/δ (SPR analyte) [3]): 61600 M⁻¹ s⁻¹
- Kd (CD3ε/δ (SPR analyte) [1]): 18.2 nM
- koff (CD3ε/δ (SPR analyte) [1]): 0.00112 s⁻¹
- kon (CD3ε/δ (SPR analyte) [1]): 61600 M⁻¹ s⁻¹
B3: humanized sp34 BG56P (antibody, V domains shown)
VH: EVQLVESGGGLVQPGGSLRLSCAASGFTFNTYAMNWVRQAPGKGLEWVARIRSKYNNYATYYADSVKDRFTISRDDAKNSLYLQMNSLRAEDTAVYYCVRHGNFGNSYVSWFAYWGQGTLVTVSS
VL: EIVLTQSPATLSVSPGERATLSCRSSTGAVTTSNYANWVQQKPGQAPRGLIGGTNKRAPGIPARFSGSLSGDEATLTISSLQSEDFAVYYCALWYSNLWVFGGGTKVEIK

Second part, the binder before the results:

B2: chimeric sp34 (ch-sp34) (antibody, V domains shown)
VH: B3 VH with G15K, R19K, A77S, K78Q, N79S, S80I, S87N, R89K, A90T, V95M
VL: QAVVTQESALTTSPGETVTLTCRSSTGAVTTSNYANWVQEKPDHLFTGLIGGTNKRAPGVPARFSGSLIGDKAALTITGAQTEDEAIYFCALWYSNLWVFGGGTKLTVL
- Kd (CD3ε/δ (SPR analyte) [2]): 27.1 nM
- koff (CD3ε/δ (SPR analyte) [2]): 0.00296 s⁻¹
- kon (CD3ε/δ (SPR analyte) [2]): 109000 M⁻¹ s⁻¹

B4: humanized sp34 BG53P (antibody, V domains shown)
VH: B3 VH with N79S, V95M
VL: B3 VL with E1Q, I2A, L4V, Q41E, A46L, P47F, R48T, V88I, Y90F
- Kd (CD3ε/δ (SPR analyte) [3]): 9.62 nM
- koff (CD3ε/δ (SPR analyte) [3]): 0.00105 s⁻¹
- kon (CD3ε/δ (SPR analyte) [3]): 109000 M⁻¹ s⁻¹
- Kd (CD3ε/δ (SPR analyte) [2]): 25.4 nM
- koff (CD3ε/δ (SPR analyte) [2]): 0.00252 s⁻¹
- kon (CD3ε/δ (SPR analyte) [2]): 99300 M⁻¹ s⁻¹
